Assay [1] has as its target 26S proteasome (mouse (endogenous in striatum and hippocampus tissue)) (UniProt P62196). Put plainly: co-IP.
Assay [2] shares this target. Put plainly: co-IP. The source holds these as a separate data set.

Where two headings read alike, the source gives them in different places.

Sequence of UniProt P62196 (P62196 whole entry, looked up): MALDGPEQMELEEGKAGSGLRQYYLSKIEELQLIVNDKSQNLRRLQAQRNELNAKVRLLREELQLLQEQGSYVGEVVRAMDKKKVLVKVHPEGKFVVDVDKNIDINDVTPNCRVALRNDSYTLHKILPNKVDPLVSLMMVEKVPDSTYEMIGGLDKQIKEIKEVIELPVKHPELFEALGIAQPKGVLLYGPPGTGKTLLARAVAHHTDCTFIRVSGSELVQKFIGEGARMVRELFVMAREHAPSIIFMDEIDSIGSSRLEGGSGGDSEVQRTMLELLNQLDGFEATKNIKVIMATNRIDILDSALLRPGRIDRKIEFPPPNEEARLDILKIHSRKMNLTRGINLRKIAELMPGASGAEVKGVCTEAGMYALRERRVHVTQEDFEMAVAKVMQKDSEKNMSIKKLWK

Regarding “gamma-enolase (ENO2) (from UniProt P17183 1-434) (natural protein)”, the results for the pixel total of the Eno2 band in assay [1] and in assay [2] were 12400 pixels and 9430 pixels, respectively.
